Among the data in paper PMC4980704 are Kd values, retold here.

This data set has as its target VEGF165 (human, UniProt P15692-4 27-191). In words: MST.

B1: V7t1 (3'-Cy3) (structured_DNA)
DNA: TGTGGGGGTGGACGGGCCGGGTAGA
Regarding B1, the Kd was found to be 75.9 ± 13 nM.
